Measurements published in the Human Domainome abundance scans (Beltran et al. 2025).

B1: Nucleolar transcription factor 1, residues 408 to 469; numbered along this chain, P17480 (parent)
chain: KRPVSAMFIFSEEKRRQLQEERPELSESELTRLLARMWNDLSEKKKAKYKAREAALKAQSER

Variants of: B1
Test: abundance fitness (aPCA) (normalised: wild type 0, dead -1); higher = more abundant; growth selection in yeast, the domain comes from the species named
Settings: Homo sapiens

Abundance fitness of substitutions, site by site:
E13: L -0.277; M -0.124; T -0.167; W -0.355; R -0.207; A -0.205; V -0.187; K -0.106; H -0.22; D -0.04; C -0.175; G -0.22; F -0.359; P -0.663; I -0.177; Y -0.29; N -0.344
F10: L -0.731; G -0.683; N -0.562; H -0.258; K -0.857; V -1.09; D -1.01; R -0.88; P -0.677; C -1.04; S -0.648; A -0.829; T -0.751; M -0.522; I -0.948; Y 0.039; E -0.875; Q -0.82; W -0.075
A6: Y -0.155
K14: F -0.034; C -0.319; R -0.034; M -0.044; H 0.062; A -0.057; P -0.956; Q -0.064; D -0.729; G -0.238; N -0.086; W -0.167; E -0.229; Y -0.038; I -0.085; V -0.07
F8: G 0.029; M -0.003; E 0.02; Y -0.001; V -0.027; Q -0.236; W -0.03; C -0.069; R 0.005; K -0.004; A -0.092; D -0.023; P -0.235; T -0.066; I -0.02; S -0.039; N 0.024
E12: N -0.048; L -0.182; C -0.19; D -0.092; T -0.069; H -0.169; W -0.253; P -0.738; S -0.028; Q -0.13; M -0.089; I -0.201; Y -0.251; K -0.059; G -0.175; F -0.315; V -0.163
S11: T -0.013; V 0.024; L -0.049; F -0.029; P -1.16; C -0.102; M 0.093; W -0.08; G -0.028; Y 0.011; Q -0.027; R -0.13; H -0.146; E -0.023; A -0.07
R15: F -0.111; S -0.121; Q -0.267; P -1.28; A -0.201; V -0.29; Y -0.243; K 0.035; G -0.153; N -0.427; T -0.23; L -0.168; H -0.411; I -0.209; C -0.218; M -0.19; E -0.279; D -1.2; W -0.295
I9: D -0.484; V -0.131; L -0.027; P -0.365; T -0.217; K -0.258; N -0.223; Q -0.202; Y -0.181; A -0.095; G -0.43; S -0.191; R -0.172; H -0.518; F -0.113; C -0.074; E -0.38
R16: K -0.073; D -0.248; C -0.012; I -0.11; E -0.106; F -0.147; H -0.071; A -0.027; L -0.058; G -0.037
M7: T -0.22; A -0.038; L -0.086; E -0.045; I -0.151; D -0.144; H -0.028; K -0.015; R -0.043; F -0.015; Q 0.012; N -0.086; P -0.053; W -0.178; C -0.066; S -0.056; G -0.131; V -0.058; Y -0.012
